T1: Nbp2, Q12163
T1 sequence (Q12163 103-180, looked up): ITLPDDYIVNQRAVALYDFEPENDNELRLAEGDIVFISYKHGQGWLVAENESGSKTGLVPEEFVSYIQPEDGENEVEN

T2: Fus1, P11710
T2 sequence (P11710 432-512, looked up): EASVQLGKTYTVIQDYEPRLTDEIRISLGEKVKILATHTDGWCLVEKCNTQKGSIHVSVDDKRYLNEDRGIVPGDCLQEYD

T3: Boi1, P38041
T3 sequence (P38041 1-86, looked up): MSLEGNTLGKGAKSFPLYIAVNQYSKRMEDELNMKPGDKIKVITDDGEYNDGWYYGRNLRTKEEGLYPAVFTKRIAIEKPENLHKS

T4: Lsb3, P43603
T4 sequence (P43603 385-451, looked up): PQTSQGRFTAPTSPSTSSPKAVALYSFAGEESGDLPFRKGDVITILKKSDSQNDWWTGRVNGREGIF

T5: Myo5, Q04439
T5 sequence (Q04439 1072-1160, looked up): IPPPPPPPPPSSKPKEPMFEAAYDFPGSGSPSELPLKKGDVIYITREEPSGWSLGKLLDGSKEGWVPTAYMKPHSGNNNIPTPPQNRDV

T6: Pex13, P80667
T6 sequence (P80667 295-386, looked up): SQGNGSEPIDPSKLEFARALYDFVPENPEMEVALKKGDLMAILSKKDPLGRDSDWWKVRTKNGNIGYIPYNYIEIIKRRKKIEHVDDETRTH

T7: Bzz1-1, P38822
T7 sequence (P38822 478-572, looked up): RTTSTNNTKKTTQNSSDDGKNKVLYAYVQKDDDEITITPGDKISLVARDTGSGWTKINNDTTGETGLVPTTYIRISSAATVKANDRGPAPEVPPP

T8: Hof1, Q05080
T8 sequence (Q05080 590-669, looked up): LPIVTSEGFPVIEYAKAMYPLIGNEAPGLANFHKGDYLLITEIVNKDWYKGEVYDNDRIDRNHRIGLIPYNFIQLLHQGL

T9: Lsb1, P53281
T9 sequence (P53281 45-122, looked up): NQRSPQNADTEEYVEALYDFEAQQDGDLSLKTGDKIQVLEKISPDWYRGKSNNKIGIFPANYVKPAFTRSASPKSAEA

T10: Lsb4, P32793
T10 sequence (P32793 402-468, looked up): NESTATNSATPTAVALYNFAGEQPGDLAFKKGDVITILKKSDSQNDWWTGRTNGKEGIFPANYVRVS

T11: Hse1, P38753
T11 sequence (P38753 208-285, looked up): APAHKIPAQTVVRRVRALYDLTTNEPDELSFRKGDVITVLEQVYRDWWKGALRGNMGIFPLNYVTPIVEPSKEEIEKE

T12: Pin3, Q06449
T12 sequence (Q06449 53-122, looked up): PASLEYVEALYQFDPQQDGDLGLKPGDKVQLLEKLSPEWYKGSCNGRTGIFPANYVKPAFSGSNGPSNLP

T13: Bzz1-2, P38822
T13 sequence (P38822 568-633, looked up): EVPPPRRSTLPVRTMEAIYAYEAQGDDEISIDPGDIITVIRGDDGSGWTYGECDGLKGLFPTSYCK

T14: Sla1-3, P32790
T14 sequence (P32790 344-424, looked up): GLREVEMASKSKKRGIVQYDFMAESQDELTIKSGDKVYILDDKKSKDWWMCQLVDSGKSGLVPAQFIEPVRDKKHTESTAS

T15: Bbc1, P47068
T15 sequence (P47068 1-78, looked up): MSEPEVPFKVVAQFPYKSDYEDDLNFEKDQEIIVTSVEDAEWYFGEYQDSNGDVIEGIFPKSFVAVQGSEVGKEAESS

T16: Abp1, P15891
T16 sequence (P15891 535-592, looked up): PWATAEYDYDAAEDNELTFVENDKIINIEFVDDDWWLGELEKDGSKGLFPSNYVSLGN

T17: Bud14, P27637
T17 sequence (P27637 247-328, looked up): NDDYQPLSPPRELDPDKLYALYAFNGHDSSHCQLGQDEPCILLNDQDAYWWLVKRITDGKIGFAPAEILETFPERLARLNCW

T18: Boi2, P39969
T18 sequence (P39969 32-116, looked up): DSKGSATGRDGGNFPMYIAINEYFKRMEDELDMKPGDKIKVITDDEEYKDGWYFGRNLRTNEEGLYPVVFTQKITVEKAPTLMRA

T19: Cdc25, P04821
T19 sequence (P04821 50-136, looked up): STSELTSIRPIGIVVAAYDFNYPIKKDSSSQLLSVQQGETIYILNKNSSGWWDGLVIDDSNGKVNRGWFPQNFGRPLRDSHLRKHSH

T20: Sla1-2, P32790
T20 sequence (P32790 60-140, looked up): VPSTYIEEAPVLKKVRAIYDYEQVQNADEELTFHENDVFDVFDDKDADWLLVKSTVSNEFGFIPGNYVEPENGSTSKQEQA

T21: Cyk3, Q07533
T21 sequence (Q07533 1-83, looked up): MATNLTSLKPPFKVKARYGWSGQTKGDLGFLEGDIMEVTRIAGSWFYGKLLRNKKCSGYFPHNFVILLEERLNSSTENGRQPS

B1: unnamed (peptide)
chain: VATSTSPKLPPRGKQ
B2: unnamed (peptide)
chain: DDEDVPPQLPTRTKS

molecular target: T1, Nbp2, Q12163; experiment: SPOT array; details: median of control spots 357

Row | Binder | SPOT intensity
1 | B1 | 0
2 | B2 | 0

molecular target: T2, Fus1, P11710; experiment: SPOT array; details: median of control spots 1200

Row | Binder | SPOT intensity
3 | B1 | 0
4 | B2 | 0

molecular target: T3, Boi1, P38041; experiment: SPOT array; details: median of control spots 1162

Row | Binder | SPOT intensity
5 | B1 | 0
6 | B2 | 2

molecular target: T4, Lsb3, P43603; experiment: SPOT array; details: median of control spots 406

Row | Binder | SPOT intensity
7 | B1 | 695
8 | B2 | 556

molecular target: Myo3, P36006; experiment: SPOT array; details: median of control spots 468

Row | Binder | SPOT intensity
9 | B1 | 0
10 | B2 | 0

molecular target: T5, Myo5, Q04439; experiment: SPOT array; details: median of control spots 471

Row | Binder | SPOT intensity
11 | B1 | 0
12 | B2 | 0

molecular target: T6, Pex13, P80667; experiment: SPOT array; details: median of control spots 1341

Row | Binder | SPOT intensity
13 | B1 | 87
14 | B2 | 97

molecular target: Rvs167, P39743; experiment: SPOT array; details: median of control spots 2707
Sequence (P39743 419-482): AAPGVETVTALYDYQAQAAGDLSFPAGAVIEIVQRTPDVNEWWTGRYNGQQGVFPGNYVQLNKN

Row | Binder | SPOT intensity
15 | B1 | 4100
16 | B2 | 1260

molecular target: T7, Bzz1-1, P38822; experiment: SPOT array; details: median of control spots 4446

Row | Binder | SPOT intensity
17 | B1 | 2
18 | B2 | 0

molecular target: T8, Hof1, Q05080; experiment: SPOT array; details: median of control spots 4086

Row | Binder | SPOT intensity
19 | B1 | 2
20 | B2 | 0

molecular target: T9, Lsb1, P53281; experiment: SPOT array; details: median of control spots 388

Row | Binder | SPOT intensity
21 | B1 | 561
22 | B2 | 58

molecular target: T10, Lsb4, P32793; experiment: SPOT array; details: median of control spots 397

Row | Binder | SPOT intensity
23 | B1 | 275
24 | B2 | 897

molecular target: T11, Hse1, P38753; experiment: SPOT array; details: median of control spots 1727

Row | Binder | SPOT intensity
25 | B1 | 0
26 | B2 | 2

molecular target: Bem1-2, P29366; experiment: SPOT array; details: median of control spots 4347
Sequence (P29366 139-227): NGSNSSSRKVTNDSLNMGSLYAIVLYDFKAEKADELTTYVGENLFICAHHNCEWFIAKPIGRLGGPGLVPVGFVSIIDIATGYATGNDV

Row | Binder | SPOT intensity
27 | B1 | 0
28 | B2 | 3

molecular target: T12, Pin3, Q06449; experiment: SPOT array; details: median of control spots 2171

Row | Binder | SPOT intensity
29 | B1 | 15
30 | B2 | 2

molecular target: T13, Bzz1-2, P38822; experiment: SPOT array; details: median of control spots 4538

Row | Binder | SPOT intensity
31 | B1 | 0
32 | B2 | 0

molecular target: GST; experiment: SPOT array; details: median of control spots 978

Row | Binder | SPOT intensity
33 | B1 | 0
34 | B2 | 1

molecular target: T14, Sla1-3, P32790; experiment: SPOT array; details: median of control spots 5475

Row | Binder | SPOT intensity
35 | B1 | 13
36 | B2 | 1

molecular target: T15, Bbc1, P47068; experiment: SPOT array; details: median of control spots 796

Row | Binder | SPOT intensity
37 | B1 | 23
38 | B2 | 5

molecular target: T16, Abp1, P15891; experiment: SPOT array; details: median of control spots 935

Row | Binder | SPOT intensity
39 | B1 | 23
40 | B2 | 0

molecular target: Bem1-1, P29366; experiment: SPOT array; details: median of control spots 4282
Sequence (P29366 55-141): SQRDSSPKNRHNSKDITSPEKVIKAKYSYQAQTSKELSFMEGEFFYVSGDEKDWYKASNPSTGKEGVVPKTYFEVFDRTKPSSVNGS

Row | Binder | SPOT intensity
41 | B1 | 6
42 | B2 | 0

molecular target: T17, Bud14, P27637; experiment: SPOT array; details: median of control spots 956

Row | Binder | SPOT intensity
43 | B1 | 0
44 | B2 | 1

molecular target: T18, Boi2, P39969; experiment: SPOT array; details: median of control spots 1161

Row | Binder | SPOT intensity
45 | B1 | 1
46 | B2 | 1

molecular target: T19, Cdc25, P04821; experiment: SPOT array; details: median of control spots 969

Row | Binder | SPOT intensity
47 | B1 | 0
48 | B2 | 0

molecular target: T20, Sla1-2, P32790; experiment: SPOT array; details: median of control spots 712

Row | Binder | SPOT intensity
49 | B1 | 0
50 | B2 | 0

molecular target: T21, Cyk3, Q07533; experiment: SPOT array; details: median of control spots 1451

Row | Binder | SPOT intensity
51 | B1 | 1
52 | B2 | 0

molecular target: Sho1, P40073; experiment: SPOT array; details: median of control spots 1148
Sequence (P40073 287-367): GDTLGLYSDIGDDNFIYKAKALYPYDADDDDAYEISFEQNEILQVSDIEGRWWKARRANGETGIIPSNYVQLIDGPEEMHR

Row | Binder | SPOT intensity
53 | B1 | 1
54 | B2 | 0

From PMC2756588
